# Measured values reported in patent EP1073891B1, “METHOD OF PREDICTING RECEPTOR MODULATING ACTIVITY” (Duke University, priority 1998, dated 1999).
# Columns and labels:
# ERα [1] = molecular target: T1, ERα (Homo sapiens, UniProt P03372); test: Disruption of ER mediated transcriptional activity, C3-Luc reporter in HepG2 cells (Example 4.4); assay type: cell-based; conditions: Gal4-peptide fusion; for block of the partial agonist activity of tamoxifen: 4-OH tamoxifen activated ER; for inhibition of the ability of estradiol to activate transcription: estradiol (10 nM) activated ER
# T1 sequence (P03372 1-595): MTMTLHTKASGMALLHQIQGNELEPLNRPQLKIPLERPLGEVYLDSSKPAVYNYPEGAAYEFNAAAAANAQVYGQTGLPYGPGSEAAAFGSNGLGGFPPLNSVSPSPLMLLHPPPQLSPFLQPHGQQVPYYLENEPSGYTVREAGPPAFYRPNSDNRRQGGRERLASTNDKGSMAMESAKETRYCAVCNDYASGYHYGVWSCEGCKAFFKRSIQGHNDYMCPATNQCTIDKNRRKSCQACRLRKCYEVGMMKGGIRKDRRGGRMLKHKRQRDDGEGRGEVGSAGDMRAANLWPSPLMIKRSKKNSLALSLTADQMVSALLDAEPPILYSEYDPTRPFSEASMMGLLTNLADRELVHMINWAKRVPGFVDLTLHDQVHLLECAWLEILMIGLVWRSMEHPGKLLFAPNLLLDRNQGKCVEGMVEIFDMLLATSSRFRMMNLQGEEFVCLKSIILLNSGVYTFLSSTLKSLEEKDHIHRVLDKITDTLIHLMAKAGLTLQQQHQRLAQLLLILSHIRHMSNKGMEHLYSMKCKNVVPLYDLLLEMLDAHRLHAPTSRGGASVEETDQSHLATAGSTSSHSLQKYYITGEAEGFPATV
# From the text: Then HepG2 cells were transfected as above except that expression vectors for Gal4-peptide fusions were included as indicated in 10B. […] Increasing amounts of input plasmid for each Gal4-peptide fusion is also shown with the resulting transcriptional activity presented as % activation of control.
# ER = molecular target: T2, ER (Homo sapiens, UniProt P03372); test: Disruption of tamoxifen activated ER transcription on several promoters (1x-ERE-Luc, 3X-ERE-Luc, TK-ERE-Luc, C3-Luc) (Example 4.5); assay type: cell-based; conditions: tamoxifen (10nM), TK-ERE-Luc and C3-Luc
# T2 construct: expressed in transfected cells; host or cells: HepG2
# T2 sequence (P03372 1-595): T1 sequence (P03372 1-595)
# ERα [2] = molecular target: T1, ERα; test: Phage ELISA / fingerprint on ER immobilized on biotinylated ERE (Examples 2.3-2.5); assay type: binding; design: purchased PanVera Corporation, Madison, WI; conditions: for binding to ERα in the in vitro phage display system: presence or absence of estradiol / 4-OH-tamoxifen
block of the partial agonist activity of tamoxifen (ERα [1]),inhibition of the ability of estradiol to activate transcription (ERα [1]),block of estradiol mediated transcription (ERα [1]),Sequence,block of tamoxifen activated transcription on distinct promoters (ER),binding of the probe to ER α (ERα [2]; in the presence of modulators),binding to ERα in the in vitro phage display system (ERα [2])
efficiently block,up to 50%,–,SSLTSRDFGSWYASR [α II],blocks tamoxifen partial agonist activity from all promoters tested,binds to ER α in the presence of any compound that binds to the estrogen receptor,"bind in the presence of estradiol and 4-OH-tamoxifen, but not in their absence"
is not,up to 50%,–,SSNHQSSRLIELLSR [α/β I],–,–,–
efficiently block,–,inability,SSPGSREWFKDMLSR [α/β V],–,–,–
efficiently block,–,inability,SSWDMHQFFWEGVSR [α/β III],–,–,binds to ERα only in the presence of 4-OH-tamoxifen
